Assay results reported in patent US7452965B2, “Colon tumor specific binding peptides” (University of Utah Research Foundation, priority 2002, dated 2008).

How the values were obtained:
[1] = tested on: HT29 cells; test: Protease assay: RPM phage binding to protease-treated cells; conditions: 37° C.
Protocol: HT29 cells were incubated at 37° C. with either active or boiled Collagenase diluted 1:20 for 10 minutes, Trypsin-EDTA 0.25% (Gibco) for 5 minutes or Proteinase K (Gibco) diluted 1:600 for 1 minute. After incubation, cells were then incubated with RPM bearing phage as described above. The number of phage remaining bound was quantified by real time PCR.
(§1) In order to further this observation, HT29 cells were treated with active or boiled proteases to determine the effect of treatment on the ability of an RPM displaying phage to bind. HT29 cells were treated with active or boiled collagenase for 15 minutes, trypsin for 5 minutes, or proteinase K for 0.5 minutes at 37° C. After protease treatment, cells were washed, then an equal number of phage were added and allowed to bind. […] The decrease in phage binding to the HT29 cells was due to the protease activity since boiling the proteases abolished the effect with phage binding returning to levels of that observed for PBS treated cells (FIG. 6B). […] After treating HT29 cells with proteases as described above, MTT was added to the cells and incubated for 45 minutes at 37° C. After incubation, the cells were solubilized with 0.1N HCl in isopropanol and the absorbance due to MTT incorporation was determined.

[2] = tested on: HT29 cells; test: MTT viability of protease-treated cells; type: cell-based; conditions: MTT 45 minutes at 37° C. after protease treatment
Protocol: as §1

B1: proteinase K: protease used to treat HT29 cells (protein, UniProt P06873 106-384, looked up)
Proteinase K: AAQTNAPWGLARISSTSPGTSTYYYDESAGQGSCVYVIDTGIEASHPEFEGRAQMVKTYYYSSRDGNGHGTHCAGTVGSRTYGVAKKTQLFGVKVLDDNGSGQYSTIIAGMDFVASDKNNRNCPKGVVASLSLGGGYSSSVNSAAARLQSSGVMVAVAAGNNNADARNYSPASEPSVCTVGASDRYDRRSSFSNYGSVLDIFGPGTSILSTWIGGSTRSISGTSMATPHVAGLAAYLMTLGKTTAASACRYIADTANKGDLSNIPFGTVNLLAYNNYQA
With B1 the “decrease of RPM phage binding to active protease treated HT29 cells” value [1] was 90% and the “average absorbance (MTT incorporation) of treated cells” value [2] was 0.183.
